Numbering of substitutions follows the chain as printed.
B1: IFN-Lambda 1 (protein, UniProt Q8IU54 20-200, looked up)
Interferon lambda-1: GPVPTSKPTTTGKGCHIGRFKSLSPQELASFKKARDALEESLKLKNWSCSSPVFPGNWDLRLLQVRERPVALEAELALTLKVLEAAAGPALEDVLDQPLHTLHHILSQLQACIQPQPTAGPRPRGRLHHWLHRLQEAPKKESAGCLEASVTFNLFRLLTRDLKYVADGNLCLRTSTHPEST
B2: IFN-Lambda 2 (protein, UniProt Q8IZJ0 26-200, looked up)
Interferon lambda-2: VPVARLHGALPDARGCHIAQFKSLSPQELQAFKRAKDALEESLLLKDCRCHSRLFPRTWDLRQLQVRERPMALEAELALTLKVLEATADTDPALVDVLDQPLHTLHHILSQFRACIQPQPTAGPRTRGRLHHWLYRLQEAPKKESPGCLEASVTFNLFRLLTRDLNCVASGDLCV
B3: IFN-Lambda 3 (protein, UniProt Q8IZI9 22-196, looked up)
Interferon lambda-3: B2 Interferon lambda-2 with H7R, R49K, H51R, M71V, V95G, F112L, Y135H

system: HCV genotype 1b HCV replicon harbored in Huh7 cells; test: Combination testing with compound A10 in HCV replicon (CalcuSyn CI and MacSynergy II synergy volume); format: cell-based; conditions: combination of compound A10 with the listed compound; MacSynergy II, Bliss independence; 25-100 synergistic, >100 strongly synergistic
Procedure: Two or more test compounds were tested in combination with each other using an HCV genotype 1b HCV replicon harbored in Huh7 cells with a stable luciferase (LUC) reporter. Cells were cultured under standard conditions in Dulbecco's modified Eagle's medium (DMEM; Mediatech Inc, Herndon, Va.) containing 10% heat-inactivated fetal bovine serum (FBS; Mediatech Inc, Herndon, Va.) 2 mM L-glutamine, and nonessential amino acids (JRH Biosciences). HCV replicon cells were plated in a 96-well plate at a density of 10^4 cells per well in DMEM with 10% FBS. […] The cells were incubated with no compound as a control, with the test compounds, or the combination of compounds for 72 h. The direct effects of the combination of the test compounds were examined using a luciferase (LUC) based reporter as determined by the Bright-Glo Luciferase Assay (Promega, Madison, Wis.). Dose-response curves were determined for individual compounds and fixed ratio combinations of two or more test compounds.
The effects of test compound combinations were evaluated by two separate methods. In the Loewe additivity model, the experimental replicon data was analyzed by using CalcuSyn (Biosoft, Ferguson, Mo.), a computer program based on the method of Chou and Talalay. The program uses the experimental data to calculate a combination index (CI) value for each experimental combination tested. A CI value of <1 indicates a synergistic effect, a CI value of 1 indicates an additive effect, and a CI value of >1 indicates an antagonistic effect.
The second method utilized for evaluating combination effects used a program called MacSynergy II. MacSynergy II software was kindly provided by Dr. M. Prichard (University of Michigan). The Prichard Model allows for a three-dimensional examination of drug interactions and a calculation of the synergy volume (units: μM^2%) generated from running the replicon assay using a checkerboard combination of two or more inhibitors. The volumes of synergy (positive volumes) or antagonism (negative volumes) represent the relative quantity of synergism or antagonism per change in the concentrations of the two drugs. Synergy and antagonism volumes are defined based on the Bliss independence model. In this model, synergy volumes of less than −25 indicate antagonistic interactions, volumes in the −25-25 range indicate additive behavior, volumes in the 25-100 range indicate synergistic behavior and volumes>100 indicate strong synergistic behavior.

Compared with B1, B2 is lower in “Synergy Volume” value: 43 μM^2% for the first, 31 μM^2% for the second.

For B3, the “Synergy Volume” value was 33 μM^2%.
